Experimental data from patent US12391751B2, “Antibody against advanced glycation end products and use thereof” (Bloom Technology Corporation, priority 2018, dated 2025).

B1: SJ-5: mouse monoclonal antibody raised against GAL13-MSA; heavy-chain variable region SEQ ID NO 4, light-chain variable region SEQ ID NO 8 (antibody, listed as Mus musculus, V domains shown)
VH: EVMLVESGGRLVKPGGSLKLSCAASGFTFSSYGMSWVRQTPEKRLEWVATISGGGSYTYYPDSVKGRFTISRDNVKNNLYLQMSSLRSEDTALYYCARRGAYGDYGWFAYWGQGTLVTVSA
VL: DIVLTQSPATLSVTPGDSVSLSCRASQSINNNLHWYQQKSHESPRLLIKCASQSISGIPSRFSGSGSGTDFTLSINSVETEDFGMYFCQQSNSWPLTFGAGTKLELK
B2: PB-1: mouse monoclonal antibody raised against A-peak-BSA; heavy-chain variable region SEQ ID NO 18, light-chain variable region SEQ ID NO 22 (antibody, listed as Mus musculus, V domains shown)
VH: EVRLQQSGPELVKPGTSVKISCKASGYSFTGYYMHWVKQSPVKSLEWIGRIIPYNGATSYNQNFKDKASLTVDKSSRTAYMDLHSLTSEDSAVYYCARSRYYGRAPYYFDYWGQGTTLTVSS
VL: DVVVTQTPLSLPVSLGDQASISCRSSQSIVHSNGNTYLEWYLQKPGQSPKLLIYKVSNRFSGVPDRISGSGSGTDFTLKISRVEAGDLGVYSCFQGSHVPFTFGSGTKLEIK

How the values were obtained:
MGO-AGEs-BSA = MGO-AGEs-BSA (Bos taurus, UniProt P02769); assay: Specificity of SJ-5 by competitive ELISA (Example 7); assay type: binding; details: GAL13-BSA or Glycer-AGEs-BSA immobilized, POD-labeled SJ-5 0.4 μg/mL
Sequence of MGO-AGEs-BSA (P02769 25-607): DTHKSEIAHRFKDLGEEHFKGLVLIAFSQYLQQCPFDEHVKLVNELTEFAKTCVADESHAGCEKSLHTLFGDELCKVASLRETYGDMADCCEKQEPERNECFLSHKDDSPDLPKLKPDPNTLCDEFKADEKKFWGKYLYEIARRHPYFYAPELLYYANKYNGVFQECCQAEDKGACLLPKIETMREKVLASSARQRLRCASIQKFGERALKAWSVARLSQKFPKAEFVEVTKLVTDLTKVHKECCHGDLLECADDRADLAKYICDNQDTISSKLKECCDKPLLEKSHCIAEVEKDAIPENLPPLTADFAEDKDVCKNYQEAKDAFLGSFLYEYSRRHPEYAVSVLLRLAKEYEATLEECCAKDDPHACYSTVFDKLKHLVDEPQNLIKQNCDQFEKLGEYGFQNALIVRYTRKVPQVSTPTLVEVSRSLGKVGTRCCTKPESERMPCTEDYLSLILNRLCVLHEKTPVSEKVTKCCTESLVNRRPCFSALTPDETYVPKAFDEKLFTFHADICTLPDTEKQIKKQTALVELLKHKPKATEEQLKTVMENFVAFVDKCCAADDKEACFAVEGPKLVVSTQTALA
Procedure: (§1) GAL13-BSA or Glycer-AGEs-BSA prepared into 1 μg/mL with PBS (pH 7.4) was added as an immobilized antigen at 100 μL/well to a 96-well microtiter plate (NUNC) and left at 25° C. for 1 hour. The antigen was immobilized overnight at 4° C. The plate was washed three times with PBS containing 0.05% (v/v) Tween 20 (PBS-T) and then blocked with a carbonate buffer solution (pH 9.5) containing 0.5% (w/v) gelatin for 1 hour. A POD-labeled SJ-5 antibody (0.4 μg/mL) was prepared under the same conditions as in Example 6. In order to confirm specificity, BSA containing AGEs derived from glucose (Glu-AGEs-BSA), BSA containing AGEs derived from glycolaldehyde (Glycol-AGEs-BSA), BSA containing AGEs derived from methylglyoxal (MGO-AGEs-BSA), BSA containing AGEs derived from glyoxal (GO-AGEs-BSA), BSA containing N^ε-carboxymethyllysine (CML-BSA), BSA containing N^ε-carboxyethyllysine (CEL-BSA), and bovine serum albumin (BSA) were added at 50 μL/well to the antigen-immobilized plate in the same way as above, and the POD-labeled SJ-5 antibody (50 μL) was further added thereto, and stirred with a plate mixer, and then left standing at room temperature for 1 hour. After washing, an o-phenylenediamine solution (100 μL) prepared into 0.5 mg/mL with a 0.1 M citrate-phosphate buffer solution (pH 5.0) containing 0.02% (w/v) hydrogen peroxide was added to each well and left standing at 25° C. for 10 minutes. Then, color reaction was terminated by the addition of a 1 M sulfuric acid solution (50 μL) to each well. Then, absorbance at 490 nm was measured with a microplate reader.

CML-BSA = CML-BSA (Bos taurus, UniProt P02769); assay: as above; assay type: binding; details: GAL13-BSA or Glycer-AGEs-BSA immobilized, POD-labeled SJ-5 0.4 μg/mL
Sequence of CML-BSA (P02769 25-607): as above
Procedure: as §1

Glycol-AGEs-BSA = Glycol-AGEs-BSA (Bos taurus, UniProt P02769); assay: as above; assay type: binding; details: GAL13-BSA or Glycer-AGEs-BSA immobilized, POD-labeled SJ-5 0.4 μg/mL
Sequence of Glycol-AGEs-BSA (P02769 25-607): as above
Procedure: as §1

Glycer-AGEs-BSA = Glycer-AGEs-BSA (Bos taurus, UniProt P02769); assay: as above; assay type: binding; details: GAL13-BSA or Glycer-AGEs-BSA immobilized, POD-labeled SJ-5 0.4 μg/mL
Sequence of Glycer-AGEs-BSA (P02769 25-607): as above
Procedure: as §1

GO-AGEs-BSA = GO-AGEs-BSA (Bos taurus, UniProt P02769); assay: as above; assay type: binding; details: GAL13-BSA or Glycer-AGEs-BSA immobilized, POD-labeled SJ-5 0.4 μg/mL
Sequence of GO-AGEs-BSA (P02769 25-607): as above
Procedure: as §1

mouse retinal tissue = assay: Retinal tissue staining of diabetic mouse and control mouse (Example 36); details: diabetic mice compared with control mice; antibody 1 mg/mL diluted 500-fold; Alexa 594 secondary
Procedure: A C57BL6/J mouse (CLEA Japan, Inc.) on 13 days of pregnancy was purchased, and child mice were obtained. For diabetic mice, streptozotocin (FUJIFILM Wako Pure Chemical Corp.) was dissolved at 5 mg/mL in saline (Otsuka Pharmaceutical Co., Ltd.) and subcutaneously administered at 300 μL to a male child mouse 2 days after birth. For control mice, saline was subcutaneously administered at 300 μL to a male child mouse 2 days after birth. After living together with the mother mouse for 4 weeks and subsequent weaning, the diabetic mice were raised with HFD32 (CLEA Japan, Inc.) for 8 weeks. The control mice were raised with CE-2 (CLEA Japan Inc.) for 8 weeks.
1.875 mL of Domitor (Nippon Zenyaku Kogyo Co., Ltd.), 2 mL of midazolam (Sandoz K.K.), 2.5 mL of Vetorphale (Meiji Seika Pharma Co., Ltd.), and 18.625 mL of saline were mixed to prepare a three drug-mixed anesthetic. The body weight of each mouse was measured with a scale (TANITA Corp.), and the three drug-mixed anesthetic was intraperitoneally administered at […]. […]
Acetone (FUJIFILM Wako Pure Chemical Corp.) was incubated for 16 hours or longer in a freezer (Fukushima Industries Corp.) set to −30° C. to prepare cold acetone. […] Then, the fluorescence of Alexa 594 in the retina was observed under a confocal laser microscope (Olympus Corp.).

| Molecule | specificity: reactivity with MGO-AGEs-BSA (MGO-AGEs-BSA) | specificity: reactivity with CML-BSA (CML-BSA) | specificity: reactivity with Glycol-AGEs-BSA (Glycol-AGEs-BSA) | specificity: reactivity with Glycer-AGEs-BSA (Glycer-AGEs-BSA) | specificity: reactivity with GO-AGEs-BSA (GO-AGEs-BSA) | staining of retinal ganglion cell layer, internal and external granular layers, retinal pigment epithelial cell layer (mouse retinal tissue) |
| --- | --- | --- | --- | --- | --- | --- |
| B1 | negative | negative | positive | positive | negative |  |
| B2 |  |  |  |  |  | bind strongly |
